Test results from patent US20230365662A1.
Residue numbers refer to the chain shown, from its start. In names and notes the source's numbering stands. Several values for one entry are separate records, joined by “and”; a condition that tells them apart may be missing. Identical values can stand only once.

B1: KB001 mouse Fab VL S30I (Fab, V domains shown)
VH: EVQLKQSGPGLVAPSQSLSITCTVSGFSLSIYSVHWVRQPPGKGLEWLGMIWGGGSSDYNSALKSRLSISKDNSKSQVFLKMNSLQTDDTAMYYCARNGNFYAMDYWGQGTSVTVSS
VL: QIVLTQSPAIMSASLGERVTMTCTASSSVISSFLHWYQQKPGSSPQLWIYSTSNLASGVPARFSGSGSGTSYSLTISSMEAEDAATYYCHQYHHSPYIYTFGGGTKLEIK
B2: KB001 mouse Fab VL N54A (Fab, V domains shown)
VH: B1 VH
VL: B1 VL with I30S, N54A
B3: KB001 mouse Fab VL S53A (Fab, V domains shown)
VH: B1 VH
VL: B1 VL with I30S, S53A
B4: KB001 mouse Fab VL N54E (Fab, V domains shown)
VH: B1 VH
VL: B1 VL with I30S, N54E
B5: KB001 mouse Fab VL N54W (Fab, V domains shown)
VH: B1 VH
VL: B1 VL with I30S, N54W
B6: KB001 mouse Fab VL N54I (Fab, V domains shown)
VH: B1 VH
VL: B1 VL with I30S, N54I
B7: KB001 mouse Fab VL S32Q (Fab, V domains shown)
VH: B1 VH
VL: B1 VL with I30S, S32Q
B8: KB001 mouse Fab VL T52R (Fab, V domains shown)
VH: B1 VH
VL: B1 VL with I30S, T52R
B9: KB001 mouse Fab VL S53V (Fab, V domains shown)
VH: B1 VH
VL: B1 VL with I30S, S53V
B10: KB001 mouse Fab VL N54D (Fab, V domains shown)
VH: B1 VH
VL: B1 VL with I30S, N54D
B11: KB001 mouse Fab VL S53E (Fab, V domains shown)
VH: B1 VH
VL: B1 VL with I30S, S53E
B12: KB001 mouse Fab VL S53Y (Fab, V domains shown)
VH: B1 VH
VL: B1 VL with I30S, S53Y
B13: KB001 mouse Fab VL L55T (Fab, V domains shown)
VH: B1 VH
VL: B1 VL with I30S, L55T
B14: KB001 mouse Fab VL L34I (Fab, V domains shown)
VH: B1 VH
VL: B1 VL with I30S, L34I
B15: KB001 mouse Fab VL F33H (Fab, V domains shown)
VH: B1 VH
VL: B1 VL with I30S, F33H
B16: KB001 mouse Fab VL S32G (Fab, V domains shown)
VH: B1 VH
VL: B1 VL with I30S, S32G
B17: KB001 mouse Fab VL S53L (Fab, V domains shown)
VH: B1 VH
VL: B1 VL with I30S, S53L
B18: KB001 mouse Fab VL S53C (Fab, V domains shown)
VH: B1 VH
VL: B1 VL with I30S, S53C
B19: KB001 mouse Fab VL L55Q (Fab, V domains shown)
VH: B1 VH
VL: B1 VL with I30S, L55Q
B20: KB001 mouse Fab VL S31W (Fab, V domains shown)
VH: B1 VH
VL: B1 VL with I30S, S31W
B21: KB001 mouse Fab VL L34V (Fab, V domains shown)
VH: B1 VH
VL: B1 VL with I30S, L34V
B22: KB001 mouse Fab VL S30K (Fab, V domains shown)
VH: B1 VH
VL: B1 VL with I30K
B23: KB001 mouse Fab VL T52K (Fab, V domains shown)
VH: B1 VH
VL: B1 VL with I30S, T52K
B24: KB001 mouse Fab VL S32Y (Fab, V domains shown)
VH: B1 VH
VL: B1 VL with I30S, S32Y
B25: KB001 mouse Fab VL F33N (Fab, V domains shown)
VH: B1 VH
VL: B1 VL with I30S, F33N
B26: KB001 mouse Fab VL N54L (Fab, V domains shown)
VH: B1 VH
VL: B1 VL with I30S, N54L
B27: KB001 mouse Fab VL S30M (Fab, V domains shown)
VH: B1 VH
VL: B1 VL with I30M
B28: KB001 mouse Fab VL S32P (Fab, V domains shown)
VH: B1 VH
VL: B1 VL with I30S, S32P
B29: KB001 mouse Fab VL S32W (Fab, V domains shown)
VH: B1 VH
VL: B1 VL with I30S, S32W
B30: KB001 mouse Fab VL S53D (Fab, V domains shown)
VH: B1 VH
VL: B1 VL with I30S, S53D
B31: KB001 mouse Fab VL S31Q (Fab, V domains shown)
VH: B1 VH
VL: B1 VL with I30S, S31Q
B32: KB001 mouse Fab VL S31D (Fab, V domains shown)
VH: B1 VH
VL: B1 VL with I30S, S31D
B33: KB001 mouse Fab VL L55H (Fab, V domains shown)
VH: B1 VH
VL: B1 VL with I30S, L55H
B34: KB001 mouse Fab VL N54F (Fab, V domains shown)
VH: B1 VH
VL: B1 VL with I30S, N54F
B35: KB001 mouse Fab VL S53W (Fab, V domains shown)
VH: B1 VH
VL: B1 VL with I30S, S53W
B36: KB001 mouse Fab VL N54K (Fab, V domains shown)
VH: B1 VH
VL: B1 VL with I30S, N54K
B37: KB001 mouse Fab VL S32A (Fab, V domains shown)
VH: B1 VH
VL: B1 VL with I30S, S32A
B38: KB001 mouse Fab VL T52L (Fab, V domains shown)
VH: B1 VH
VL: B1 VL with I30S, T52L
B39: KB001 mouse Fab VL L34M (Fab, V domains shown)
VH: B1 VH
VL: B1 VL with I30S, L34M
B40: KB001 mouse Fab VL T52M (Fab, V domains shown)
VH: B1 VH
VL: B1 VL with I30S, T52M
B41: KB001 mouse Fab VL S53R (Fab, V domains shown)
VH: B1 VH
VL: B1 VL with I30S, S53R
B42: KB001 mouse Fab VL L55S (Fab, V domains shown)
VH: B1 VH
VL: B1 VL with I30S, L55S

Target: HRgpA-6H (Porphyromonas gingivalis) (UniProt P28784)
Sequence of UniProt P28784 (P28784 228-991): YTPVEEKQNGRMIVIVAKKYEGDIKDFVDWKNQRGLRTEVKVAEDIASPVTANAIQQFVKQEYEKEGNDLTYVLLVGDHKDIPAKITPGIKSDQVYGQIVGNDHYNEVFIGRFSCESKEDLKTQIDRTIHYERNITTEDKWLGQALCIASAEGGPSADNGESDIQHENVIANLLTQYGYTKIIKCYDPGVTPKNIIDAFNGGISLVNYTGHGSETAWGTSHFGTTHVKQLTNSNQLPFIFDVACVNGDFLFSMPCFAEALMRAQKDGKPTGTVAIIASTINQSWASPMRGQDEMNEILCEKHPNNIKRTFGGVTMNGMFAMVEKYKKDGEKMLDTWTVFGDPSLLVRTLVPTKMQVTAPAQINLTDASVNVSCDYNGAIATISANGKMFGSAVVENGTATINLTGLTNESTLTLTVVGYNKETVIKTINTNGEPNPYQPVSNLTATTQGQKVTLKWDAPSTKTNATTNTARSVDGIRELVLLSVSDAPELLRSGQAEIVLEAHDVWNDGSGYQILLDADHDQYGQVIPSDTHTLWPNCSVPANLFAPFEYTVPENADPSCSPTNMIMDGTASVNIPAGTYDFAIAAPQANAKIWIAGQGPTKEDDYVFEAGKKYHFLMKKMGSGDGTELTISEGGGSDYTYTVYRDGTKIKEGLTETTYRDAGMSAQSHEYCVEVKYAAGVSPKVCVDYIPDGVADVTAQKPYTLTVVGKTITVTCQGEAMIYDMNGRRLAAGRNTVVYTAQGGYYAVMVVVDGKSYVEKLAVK
Experiment: ELISA, FASEBA Fab on coated HRgpA-6H

| Binder | OD450nm | Ratio OD(Variant)/OD(WT) |
| --- | --- | --- |
| B1 | 0.86 | 0.998 |
| B2 | 0.776 | 0.99 |
| B3 | 0.784 | 0.996 |
| B4 | 0.744 and 0.74 | 0.95 and 0.944 |
| B5 | 0.646 | 0.825 |
| B6 | 0.755 and 0.772 and 0.754 | 0.964 and 0.985 and 0.962 |
| B7 | 0.716 | 0.847 |
| B8 | 0.724 and 0.681 and 0.685 | 0.919 and 0.865 and 0.87 |
| B9 | 0.702 | 0.891 |
| B10 | 0.725 | 0.925 |
| B11 | 0.766 | 0.973 |
| B12 | 0.776 and 0.781 | 0.985 and 0.992 |
| B13 | 0.727 | 0.928 |
| B14 | 0.67 | 0.884 |
| B15 | 0.736 | 0.971 |
| B16 | 0.759 | 0.898 |
| B17 | 0.639 and 0.636 | 0.811 and 0.808 |
| B18 | 0.697 | 0.885 |
| B19 | 0.711 and 0.692 and 0.684 | 0.907 and 0.883 and 0.873 |
| B20 | 0.808 | 0.956 |
| B21 | 0.641 and 0.634 | 0.846 and 0.836 |

| Binder | OD450nm | Ratio OD(Variant)/OD(WT) |
| --- | --- | --- |
| B22 | 0.77 | 0.893 |
| B23 | 0.681 | 0.865 |
| B24 | 0.753 | 0.891 |
| B25 | 0.64 | 0.844 |
| B26 | 0.774 | 0.988 |
| B27 | 0.818 | 0.949 |
| B28 | 0.744 | 0.88 |
| B29 | 0.649 | 0.856 |
| B30 | 0.775 | 0.984 |
| B31 | 0.83 and 0.745 and 0.782 | 0.982 and 0.882 and 0.925 |
| B32 | 0.762 | 0.902 |
| B33 | 0.695 and 0.731 | 0.887 and 0.933 |
| B34 | 0.765 | 0.976 |
| B35 | 0.727 | 0.923 |
| B36 | 0.727 | 0.928 |
| B37 | 0.748 and 0.805 | 0.885 and 0.953 |
| B38 | 0.769 | 0.977 |
| B39 | 0.736 and 0.741 and 0.714 | 0.971 and 0.978 and 0.911 |
| B40 | 0.662 | 0.841 |
| B41 | 0.637 | 0.809 |
| B42 | 0.672 | 0.858 |
